The target in the experiment is T1, soluble human FcγRIIb (human, UniProt P31994 43-217, limits assumed).
T1 construct: soluble His-tagged form; also called hFcγRIIb
T1 sequence (looked up): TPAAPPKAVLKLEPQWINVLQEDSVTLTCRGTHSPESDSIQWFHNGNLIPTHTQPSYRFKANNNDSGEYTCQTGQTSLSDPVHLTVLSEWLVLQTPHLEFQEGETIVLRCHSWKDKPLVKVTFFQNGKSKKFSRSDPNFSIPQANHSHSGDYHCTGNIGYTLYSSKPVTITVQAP
The experiment is described as follows: SPR, Ab-IgE complex over captured hFcγRIIb, pH 7.4, 25C. How it is done:
Fc region variant-containing antibody binding assays between soluble human FcγRIIb (a.k.a. “hFcγRIIb”) and antigen-antibody complexes were performed using BIACORE® T200 (GE Healthcare). Soluble hFcγRIIb was produced in the form of a His-tagged molecule using methods known in the art. An appropriate amount of an anti-His antibody was fixed onto Sensor chip CM5 (GE Healthcare) by the amine coupling method using a His capture kit (GE Healthcare) to capture hFcγRIIb. Next, an antibody-antigen complex and a running buffer (as a reference solution) was injected, and interaction was allowed to take place with the hFcγRIIb captured onto the sensor chip. 20 mM N-(2-Acetamido)-2-aminoethanesulfonic acid, 150 mM NaCl, 1.2 mM CaCl₂, and 0.05% (w/v) Tween 20 at pH 7.4 was used as the running buffer, and the respective buffer was also used to dilute the soluble hFcγRIIb. To regenerate the sensor chip, 10 mM glycine-HCl at pH 1.5 was used. All measurements were carried out at 25° C. Analyses were performed based on binding (RU) calculated from sensorgrains obtained by the measurements, and relative values when the binding amount of P600 was defined as 1.00 are shown. To calculate the parameters, the BIACORE® T100 Evaluation Software (GE Healthcare) was used.
In general terms: In SPR one partner is held on a chip, and binding of the other changes the refractive index at the surface.

B1: Ab1H-P927/Ab1L (antibody, human IgG1, kappa, name in EU numbering)
heavy: QVQLVESGGGLVQPGGSLRLSCAASGFTLSNHDMTWVRQAPGKGLEYVSIINTYGNHWYANWASGRFTISRDNSKNTVYLQIDSLRAEDTATYYCARETHHGSSGIDHWGQGTLVTVSSASTKGPSVFPLAPSSKSTSGGTAALGCLVKDYFPEPVTVSWNSGALTSGVHTFPAVLQSSGLYSLSSVVTVPSSSLGTQTYICNVNHKPSNTKVDKKVEPKSCDKTHTCPPCPAPELLGGDSVFLFPPKPKDTLMISRTPEVTCVVVDVSHEDPEVKFNWYVDGVEVHNAKTKPRERQYNATYRVVSVLTVLHQDWLNGKEYKCKVSNKALPAPIEKTISKAKGQPREPQVYTLPPSREEMTKNQVSLTCLVKGFYPSDIAVEWESNGQPENNYKTTPPVLDSDGSFFLYSKLTVDKSRWQQGNVFSCSVMHEALHNHYTQKSLSLSP
light: DIQMTQSPSSVSASVGDRVTITCQASESIYSGLAWYQQKPGQPPKLLIYDHSTLASGVPSRFSGSGSGTEYALTISSLQPEDFATYYCQHADYAHHSDNVFGGGTKVEIKRTVAAPSVFIFPPSDEQLKSGTASVVCLLNNFYPREAKVQWKVDNALQSGNSQESVTEQDSKDSTYSLSSTLTLSKADYEKHKVYACEVTHQGLSSPVTKSFNRGEC
notes: copies: 2 + 2
For the molecule B1, the “relative binding (RU), P600=1.00” value came to 0.25 fold.

B2: Ab1H-P934/Ab1L (antibody, human IgG1, kappa, name in EU numbering)
heavy: QVQLVESGGGLVQPGGSLRLSCAASGFTLSNHDMTWVRQAPGKGLEYVSIINTYGNHWYANWASGRFTISRDNSKNTVYLQIDSLRAEDTATYYCARETHHGSSGIDHWGQGTLVTVSSASTKGPSVFPLAPSSKSTSGGTAALGCLVKDYFPEPVTVSWNSGALTSGVHTFPAVLQSSGLYSLSSVVTVPSSSLGTQTYICNVNHKPSNTKVDKKVEPKSCDKTHTCPPCPAPELLGGDSVFLFPPKPKDTLMISRTPEVTCVVVDVSHEDPEVKFNWYVDGREVHNAKTKPREEQYNATYRVVSVLTVLHQDWLNGKEYKCKVSNKALPAPIEKTISKAKGQPREPQVYTLPPSREEMTKNQVSLTCLVKGFYPSDIAVEWESNGQPENNYKTTPPVLDSDGSFFLYSKLTVDKSRWQQGNVFSCSVMHEALHNHYTQKSLSLSP
light: DIQMTQSPSSVSASVGDRVTITCQASESIYSGLAWYQQKPGQPPKLLIYDHSTLASGVPSRFSGSGSGTEYALTISSLQPEDFATYYCQHADYAHHSDNVFGGGTKVEIKRTVAAPSVFIFPPSDEQLKSGTASVVCLLNNFYPREAKVQWKVDNALQSGNSQESVTEQDSKDSTYSLSSTLTLSKADYEKHKVYACEVTHQGLSSPVTKSFNRGEC
notes: copies: 2 + 2
Consider B2, for which the “relative binding (RU), P600=1.00” value was 1.54 fold.

B3: Ab1H-P935/Ab1L (antibody, human IgG1, kappa, name in EU numbering)
heavy: QVQLVESGGGLVQPGGSLRLSCAASGFTLSNHDMTWVRQAPGKGLEYVSIINTYGNHWYANWASGRFTISRDNSKNTVYLQIDSLRAEDTATYYCARETHHGSSGIDHWGQGTLVTVSSASTKGPSVFPLAPSSKSTSGGTAALGCLVKDYFPEPVTVSWNSGALTSGVHTFPAVLQSSGLYSLSSVVTVPSSSLGTQTYICNVNHKPSNTKVDKKVEPKSCDKTHTCPPCPAPELLGGDSVFLFPPKPKDTLMISRTPEVTCVVVDVSHEDPEVKFNWYVDRVEVHNAKTKPREEQYNATYRVVSVLTVLHQDWLNGKEYKCKVSNKALPAPIEKTISKAKGQPREPQVYTLPPSREEMTKNQVSLTCLVKGFYPSDIAVEWESNGQPENNYKTTPPVLDSDGSFFLYSKLTVDKSRWQQGNVFSCSVMHEALHNHYTQKSLSLSP
light: DIQMTQSPSSVSASVGDRVTITCQASESIYSGLAWYQQKPGQPPKLLIYDHSTLASGVPSRFSGSGSGTEYALTISSLQPEDFATYYCQHADYAHHSDNVFGGGTKVEIKRTVAAPSVFIFPPSDEQLKSGTASVVCLLNNFYPREAKVQWKVDNALQSGNSQESVTEQDSKDSTYSLSSTLTLSKADYEKHKVYACEVTHQGLSSPVTKSFNRGEC
notes: copies: 2 + 2
Regarding B3, the “relative binding (RU), P600=1.00” value is -0.06 fold.

B4: Ab1H-P929/Ab1L (antibody, human IgG1, kappa, name in EU numbering)
heavy: QVQLVESGGGLVQPGGSLRLSCAASGFTLSNHDMTWVRQAPGKGLEYVSIINTYGNHWYANWASGRFTISRDNSKNTVYLQIDSLRAEDTATYYCARETHHGSSGIDHWGQGTLVTVSSASTKGPSVFPLAPSSKSTSGGTAALGCLVKDYFPEPVTVSWNSGALTSGVHTFPAVLQSSGLYSLSSVVTVPSSSLGTQTYICNVNHKPSNTKVDKKVEPKSCDKTHTCPPCPAPELLGGDSVFLFPPKPKDTLMISRTPEVTCVVVDVSHEDPEVKFNWYVDGVEVHNAKTKRREEQYNATYRVVSVLTVLHQDWLNGKEYKCKVSNKALPAPIEKTISKAKGQPREPQVYTLPPSREEMTKNQVSLTCLVKGFYPSDIAVEWESNGQPENNYKTTPPVLDSDGSFFLYSKLTVDKSRWQQGNVFSCSVMHEALHNHYTQKSLSLSP
light: DIQMTQSPSSVSASVGDRVTITCQASESIYSGLAWYQQKPGQPPKLLIYDHSTLASGVPSRFSGSGSGTEYALTISSLQPEDFATYYCQHADYAHHSDNVFGGGTKVEIKRTVAAPSVFIFPPSDEQLKSGTASVVCLLNNFYPREAKVQWKVDNALQSGNSQESVTEQDSKDSTYSLSSTLTLSKADYEKHKVYACEVTHQGLSSPVTKSFNRGEC
notes: copies: 2 + 2
Take B4: the “relative binding (RU), P600=1.00” value was 0.47 fold.

B5: Ab1H-P928/Ab1L (antibody, human IgG1, kappa, name in EU numbering)
heavy: QVQLVESGGGLVQPGGSLRLSCAASGFTLSNHDMTWVRQAPGKGLEYVSIINTYGNHWYANWASGRFTISRDNSKNTVYLQIDSLRAEDTATYYCARETHHGSSGIDHWGQGTLVTVSSASTKGPSVFPLAPSSKSTSGGTAALGCLVKDYFPEPVTVSWNSGALTSGVHTFPAVLQSSGLYSLSSVVTVPSSSLGTQTYICNVNHKPSNTKVDKKVEPKSCDKTHTCPPCPAPELLGGDSVFLFPPKPKDTLMISRTPEVTCVVVDVSHEDPEVKFNWYVDGVEVHNAKTKPRREQYNATYRVVSVLTVLHQDWLNGKEYKCKVSNKALPAPIEKTISKAKGQPREPQVYTLPPSREEMTKNQVSLTCLVKGFYPSDIAVEWESNGQPENNYKTTPPVLDSDGSFFLYSKLTVDKSRWQQGNVFSCSVMHEALHNHYTQKSLSLSP
light: DIQMTQSPSSVSASVGDRVTITCQASESIYSGLAWYQQKPGQPPKLLIYDHSTLASGVPSRFSGSGSGTEYALTISSLQPEDFATYYCQHADYAHHSDNVFGGGTKVEIKRTVAAPSVFIFPPSDEQLKSGTASVVCLLNNFYPREAKVQWKVDNALQSGNSQESVTEQDSKDSTYSLSSTLTLSKADYEKHKVYACEVTHQGLSSPVTKSFNRGEC
notes: copies: 2 + 2
Take B5: the “relative binding (RU), P600=1.00” value was 0.2 fold.

B6: Ab1H-P931/Ab1L (antibody, human IgG1, kappa, name in EU numbering)
heavy: QVQLVESGGGLVQPGGSLRLSCAASGFTLSNHDMTWVRQAPGKGLEYVSIINTYGNHWYANWASGRFTISRDNSKNTVYLQIDSLRAEDTATYYCARETHHGSSGIDHWGQGTLVTVSSASTKGPSVFPLAPSSKSTSGGTAALGCLVKDYFPEPVTVSWNSGALTSGVHTFPAVLQSSGLYSLSSVVTVPSSSLGTQTYICNVNHKPSNTKVDKKVEPKSCDKTHTCPPCPAPELLGGDSVFLFPPKPKDTLMISRTPEVTCVVVDVSHEDPEVKFNWYVDGVEVHRAKTKPREEQYNATYRVVSVLTVLHQDWLNGKEYKCKVSNKALPAPIEKTISKAKGQPREPQVYTLPPSREEMTKNQVSLTCLVKGFYPSDIAVEWESNGQPENNYKTTPPVLDSDGSFFLYSKLTVDKSRWQQGNVFSCSVMHEALHNHYTQKSLSLSP
light: DIQMTQSPSSVSASVGDRVTITCQASESIYSGLAWYQQKPGQPPKLLIYDHSTLASGVPSRFSGSGSGTEYALTISSLQPEDFATYYCQHADYAHHSDNVFGGGTKVEIKRTVAAPSVFIFPPSDEQLKSGTASVVCLLNNFYPREAKVQWKVDNALQSGNSQESVTEQDSKDSTYSLSSTLTLSKADYEKHKVYACEVTHQGLSSPVTKSFNRGEC
notes: copies: 2 + 2
Regarding B6, the “relative binding (RU), P600=1.00” value was determined as 0.68 fold.

B7: Ab1H-P930/Ab1L (antibody, human IgG1, kappa, name in EU numbering)
heavy: QVQLVESGGGLVQPGGSLRLSCAASGFTLSNHDMTWVRQAPGKGLEYVSIINTYGNHWYANWASGRFTISRDNSKNTVYLQIDSLRAEDTATYYCARETHHGSSGIDHWGQGTLVTVSSASTKGPSVFPLAPSSKSTSGGTAALGCLVKDYFPEPVTVSWNSGALTSGVHTFPAVLQSSGLYSLSSVVTVPSSSLGTQTYICNVNHKPSNTKVDKKVEPKSCDKTHTCPPCPAPELLGGDSVFLFPPKPKDTLMISRTPEVTCVVVDVSHEDPEVKFNWYVDGVEVHNRKTKPREEQYNATYRVVSVLTVLHQDWLNGKEYKCKVSNKALPAPIEKTISKAKGQPREPQVYTLPPSREEMTKNQVSLTCLVKGFYPSDIAVEWESNGQPENNYKTTPPVLDSDGSFFLYSKLTVDKSRWQQGNVFSCSVMHEALHNHYTQKSLSLSP
light: DIQMTQSPSSVSASVGDRVTITCQASESIYSGLAWYQQKPGQPPKLLIYDHSTLASGVPSRFSGSGSGTEYALTISSLQPEDFATYYCQHADYAHHSDNVFGGGTKVEIKRTVAAPSVFIFPPSDEQLKSGTASVVCLLNNFYPREAKVQWKVDNALQSGNSQESVTEQDSKDSTYSLSSTLTLSKADYEKHKVYACEVTHQGLSSPVTKSFNRGEC
notes: copies: 2 + 2
On to B7, for which the “relative binding (RU), P600=1.00” value is -0.07 fold.

B8: Ab1H-P932/Ab1L (antibody, human IgG1, kappa, name in EU numbering)
heavy: QVQLVESGGGLVQPGGSLRLSCAASGFTLSNHDMTWVRQAPGKGLEYVSIINTYGNHWYANWASGRFTISRDNSKNTVYLQIDSLRAEDTATYYCARETHHGSSGIDHWGQGTLVTVSSASTKGPSVFPLAPSSKSTSGGTAALGCLVKDYFPEPVTVSWNSGALTSGVHTFPAVLQSSGLYSLSSVVTVPSSSLGTQTYICNVNHKPSNTKVDKKVEPKSCDKTHTCPPCPAPELLGGDSVFLFPPKPKDTLMISRTPEVTCVVVDVSHEDPEVKFNWYVDGVEVRNAKTKPREEQYNATYRVVSVLTVLHQDWLNGKEYKCKVSNKALPAPIEKTISKAKGQPREPQVYTLPPSREEMTKNQVSLTCLVKGFYPSDIAVEWESNGQPENNYKTTPPVLDSDGSFFLYSKLTVDKSRWQQGNVFSCSVMHEALHNHYTQKSLSLSP
light: DIQMTQSPSSVSASVGDRVTITCQASESIYSGLAWYQQKPGQPPKLLIYDHSTLASGVPSRFSGSGSGTEYALTISSLQPEDFATYYCQHADYAHHSDNVFGGGTKVEIKRTVAAPSVFIFPPSDEQLKSGTASVVCLLNNFYPREAKVQWKVDNALQSGNSQESVTEQDSKDSTYSLSSTLTLSKADYEKHKVYACEVTHQGLSSPVTKSFNRGEC
notes: copies: 2 + 2
B8: the “relative binding (RU), P600=1.00” value is 1.38 fold.

The values are drawn from patent US20180258163A1 (Chugai, published 2018).
